Measured values from PMC9034101.

How the values were obtained:
[1] = target: Cy5 N-terminal-labeled WWP2 (human) (UniProt O00308); experiment: MST; 10 nM N-terminal Cy5-labeled WWP2, NDP52 (up to 48 uM) or OPTN (up to 60 uM) in two-fold serial dilution; 25 mM Hepes pH 7.8, 250 mM NaCl, 1 mM TCEP, 0.5 mg/ml BSA, 0.05% Tween-20; room temperature; apparent KD, quadratic model
[2] = target: PTEN (Homo sapiens) (UniProt P60484); conditions: cited from earlier work
Sequence of PTEN (Homo sapiens) (P60484 2-403): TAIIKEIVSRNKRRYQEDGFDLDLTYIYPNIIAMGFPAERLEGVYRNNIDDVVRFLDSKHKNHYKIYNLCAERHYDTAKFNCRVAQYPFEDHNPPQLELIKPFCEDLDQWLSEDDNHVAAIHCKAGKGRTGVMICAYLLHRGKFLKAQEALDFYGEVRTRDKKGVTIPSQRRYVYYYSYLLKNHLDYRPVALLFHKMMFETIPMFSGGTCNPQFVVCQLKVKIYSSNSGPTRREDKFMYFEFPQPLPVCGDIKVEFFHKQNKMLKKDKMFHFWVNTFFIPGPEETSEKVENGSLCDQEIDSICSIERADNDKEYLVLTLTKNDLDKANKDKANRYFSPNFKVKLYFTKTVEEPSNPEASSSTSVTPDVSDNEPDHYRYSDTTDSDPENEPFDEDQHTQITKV

Sequence of WWP2 (O00308 whole entry): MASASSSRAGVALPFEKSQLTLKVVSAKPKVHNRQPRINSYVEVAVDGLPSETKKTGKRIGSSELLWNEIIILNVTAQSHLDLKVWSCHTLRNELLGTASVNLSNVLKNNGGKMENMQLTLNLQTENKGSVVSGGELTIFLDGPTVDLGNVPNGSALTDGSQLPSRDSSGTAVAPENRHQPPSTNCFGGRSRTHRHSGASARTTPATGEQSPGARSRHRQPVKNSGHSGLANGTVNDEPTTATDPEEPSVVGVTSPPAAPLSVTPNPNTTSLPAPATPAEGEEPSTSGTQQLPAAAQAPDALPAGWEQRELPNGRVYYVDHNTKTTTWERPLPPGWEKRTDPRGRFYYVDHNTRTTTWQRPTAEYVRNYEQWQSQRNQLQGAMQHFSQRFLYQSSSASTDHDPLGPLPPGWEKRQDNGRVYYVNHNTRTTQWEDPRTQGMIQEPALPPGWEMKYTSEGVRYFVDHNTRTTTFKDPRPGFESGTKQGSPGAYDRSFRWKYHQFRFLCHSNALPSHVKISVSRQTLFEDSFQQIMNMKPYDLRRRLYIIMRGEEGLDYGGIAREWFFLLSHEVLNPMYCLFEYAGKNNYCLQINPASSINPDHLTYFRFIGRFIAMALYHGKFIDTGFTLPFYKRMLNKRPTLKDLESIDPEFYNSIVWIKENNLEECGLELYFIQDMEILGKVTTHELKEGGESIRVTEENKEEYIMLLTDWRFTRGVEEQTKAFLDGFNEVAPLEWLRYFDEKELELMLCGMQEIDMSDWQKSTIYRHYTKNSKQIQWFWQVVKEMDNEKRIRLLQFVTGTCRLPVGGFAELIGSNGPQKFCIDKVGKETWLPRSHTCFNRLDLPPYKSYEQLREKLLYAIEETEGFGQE
Sequence of Optineurin (Q96CV9 whole entry): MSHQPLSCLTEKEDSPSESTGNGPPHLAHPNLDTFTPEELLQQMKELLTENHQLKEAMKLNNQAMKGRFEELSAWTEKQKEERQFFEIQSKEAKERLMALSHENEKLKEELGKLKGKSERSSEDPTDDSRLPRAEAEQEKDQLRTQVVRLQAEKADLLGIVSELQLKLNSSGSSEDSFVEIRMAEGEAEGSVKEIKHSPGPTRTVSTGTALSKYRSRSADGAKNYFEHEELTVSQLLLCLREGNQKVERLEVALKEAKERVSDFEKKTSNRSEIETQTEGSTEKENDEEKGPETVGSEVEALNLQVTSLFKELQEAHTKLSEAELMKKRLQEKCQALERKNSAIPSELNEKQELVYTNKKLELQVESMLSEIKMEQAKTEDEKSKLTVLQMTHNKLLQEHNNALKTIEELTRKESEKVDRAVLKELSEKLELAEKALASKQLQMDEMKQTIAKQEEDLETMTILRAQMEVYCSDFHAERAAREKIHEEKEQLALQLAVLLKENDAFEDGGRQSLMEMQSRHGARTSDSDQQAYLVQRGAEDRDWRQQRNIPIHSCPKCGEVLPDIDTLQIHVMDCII

For “Optineurin (from UniProt Q96CV9 1-577) (natural protein)”, the Kd [1] was 39 µM.

In the case of WWP2 (from UniProt O00308), the Kd [2] is given as 20 µM.
